According to patent US20260028424A1 (GRANULAR THERAPEUTICS, published 2026):
Numbering of substitutions follows the chain as printed.

T1: biotinylated human CD203c (bio-huCD203c, Acro, Cat. nr. H52H4) (human, UniProt O14638 49-875, limits assumed, biotinylated (site not stated))
T1 construct: Captured on a Biotin CAPture chip for SPR
T1 sequence (looked up): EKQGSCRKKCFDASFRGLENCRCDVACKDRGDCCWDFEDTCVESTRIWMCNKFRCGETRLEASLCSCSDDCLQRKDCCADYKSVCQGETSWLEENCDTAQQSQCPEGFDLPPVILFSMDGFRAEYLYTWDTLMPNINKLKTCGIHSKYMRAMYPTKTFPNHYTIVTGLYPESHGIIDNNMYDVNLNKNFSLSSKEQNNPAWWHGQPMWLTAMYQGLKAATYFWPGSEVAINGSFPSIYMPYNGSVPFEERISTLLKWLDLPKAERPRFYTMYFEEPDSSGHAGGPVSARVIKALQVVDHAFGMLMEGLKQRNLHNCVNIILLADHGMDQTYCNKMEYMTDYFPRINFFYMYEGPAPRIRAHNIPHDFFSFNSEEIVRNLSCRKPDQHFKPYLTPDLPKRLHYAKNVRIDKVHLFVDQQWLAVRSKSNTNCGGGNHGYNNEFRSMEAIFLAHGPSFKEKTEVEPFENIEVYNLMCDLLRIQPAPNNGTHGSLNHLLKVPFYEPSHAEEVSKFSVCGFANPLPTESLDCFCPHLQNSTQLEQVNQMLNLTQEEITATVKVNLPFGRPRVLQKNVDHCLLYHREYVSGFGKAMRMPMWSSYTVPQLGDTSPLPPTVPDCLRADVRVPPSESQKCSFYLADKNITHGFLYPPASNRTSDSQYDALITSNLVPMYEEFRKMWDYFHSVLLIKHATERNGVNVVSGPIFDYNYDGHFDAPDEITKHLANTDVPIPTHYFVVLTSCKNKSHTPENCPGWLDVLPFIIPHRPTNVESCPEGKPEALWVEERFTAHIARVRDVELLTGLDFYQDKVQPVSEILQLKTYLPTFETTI

T2: biotinylated cynomolgus CD203c (bio-cyCD203c, Icosagen) (cynomolgus monkey, UniProt A0A2K5TKP4 31-874, biotinylated (site not stated))
T2 construct: Captured on a Biotin CAPture chip for SPR; also called cyno CD203c
T2 sequence: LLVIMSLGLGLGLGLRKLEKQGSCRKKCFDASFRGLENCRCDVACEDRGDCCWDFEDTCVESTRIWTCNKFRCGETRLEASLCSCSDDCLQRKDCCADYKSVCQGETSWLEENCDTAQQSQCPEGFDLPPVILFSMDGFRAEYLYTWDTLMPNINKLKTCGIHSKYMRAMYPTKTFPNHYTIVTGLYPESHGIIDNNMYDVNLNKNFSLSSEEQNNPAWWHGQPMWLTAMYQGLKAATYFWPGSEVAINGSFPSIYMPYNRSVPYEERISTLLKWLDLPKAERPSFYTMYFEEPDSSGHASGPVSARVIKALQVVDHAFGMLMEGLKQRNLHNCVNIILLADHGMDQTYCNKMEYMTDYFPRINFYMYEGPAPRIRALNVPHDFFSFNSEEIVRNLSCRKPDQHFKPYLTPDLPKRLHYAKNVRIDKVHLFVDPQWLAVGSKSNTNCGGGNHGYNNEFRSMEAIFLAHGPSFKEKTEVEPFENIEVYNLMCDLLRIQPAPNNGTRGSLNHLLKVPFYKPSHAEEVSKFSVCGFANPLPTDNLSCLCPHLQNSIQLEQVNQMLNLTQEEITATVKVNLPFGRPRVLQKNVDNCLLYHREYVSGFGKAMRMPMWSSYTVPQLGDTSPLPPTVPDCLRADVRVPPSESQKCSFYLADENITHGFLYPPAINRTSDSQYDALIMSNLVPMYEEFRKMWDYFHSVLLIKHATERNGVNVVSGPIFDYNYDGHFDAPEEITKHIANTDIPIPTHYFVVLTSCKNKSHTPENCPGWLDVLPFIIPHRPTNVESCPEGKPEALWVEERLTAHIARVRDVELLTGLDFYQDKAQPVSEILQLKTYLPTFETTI

T3: human CD203c expressed on the surface of KU812 cells (human, UniProt O14638 1-875)
T3 construct: whole, on cells; also called cell-surface CD203c; cell surface CD203c on KU812 cells
T3 sequence (looked up): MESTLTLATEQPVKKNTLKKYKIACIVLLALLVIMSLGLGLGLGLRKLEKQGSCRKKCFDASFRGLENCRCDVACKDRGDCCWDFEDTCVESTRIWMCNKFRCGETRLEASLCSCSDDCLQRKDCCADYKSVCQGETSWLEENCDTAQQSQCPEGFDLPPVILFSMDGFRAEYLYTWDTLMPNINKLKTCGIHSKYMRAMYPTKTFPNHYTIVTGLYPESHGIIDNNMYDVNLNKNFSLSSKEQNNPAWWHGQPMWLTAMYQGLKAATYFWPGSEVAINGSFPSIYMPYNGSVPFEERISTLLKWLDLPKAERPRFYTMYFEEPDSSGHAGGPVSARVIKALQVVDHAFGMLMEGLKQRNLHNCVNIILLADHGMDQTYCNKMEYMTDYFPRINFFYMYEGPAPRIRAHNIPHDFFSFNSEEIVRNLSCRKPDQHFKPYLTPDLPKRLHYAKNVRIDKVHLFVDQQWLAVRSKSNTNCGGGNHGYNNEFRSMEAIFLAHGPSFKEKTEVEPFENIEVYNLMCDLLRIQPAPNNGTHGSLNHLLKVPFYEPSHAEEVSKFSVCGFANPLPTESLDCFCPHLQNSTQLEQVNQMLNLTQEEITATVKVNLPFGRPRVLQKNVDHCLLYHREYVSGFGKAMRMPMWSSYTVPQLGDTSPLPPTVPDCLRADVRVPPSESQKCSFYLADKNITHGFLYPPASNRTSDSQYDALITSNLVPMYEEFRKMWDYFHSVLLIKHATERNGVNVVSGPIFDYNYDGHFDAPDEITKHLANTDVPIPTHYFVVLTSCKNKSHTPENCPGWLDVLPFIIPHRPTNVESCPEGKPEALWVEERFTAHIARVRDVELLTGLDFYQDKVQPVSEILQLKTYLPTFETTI

B1: MH1/F6.12 bispecific (parental, before pI engineering) (bispecific antibody, V domains shown)
VH 1: QVQLVQSGAEVKKPGASVKVSCKASGYTFTDYYMNWVRQAPGQGLEWMGRIYPGSGNTYYAQKFQGRVTMTRDTSTSTVYMELSSLRSEDTAVYYCARGVYYYDYWGQGTLVTVSS
VH 2: EVQLVQSGAEVKKPGESLKISCKGSGYRFASNWIGWVRQMPGKGLEWMGEIYPGDSNTRYSPSFQGQVTISADKSISTAYLQWSSLKASDTAMYYCARKDYYYGIMDVWGQGTTVTVSS
VL: DIQMTQSPSSLSASVGDRVTITCRASQGIRTNLAWFQQKPGKAPKSLIYAASSLQSGVPSRFSGSGSGTDFTLTISSLQPEDFATYYCQQYNSYPRTFGGGTKVEIK
notes: Knob-in-hole IgG1null bispecific with human Ckappa; also called parental bispecific MH1/F6.12
B2: 1.27-Fab (Fab, V domains shown)
VH: B1 VH 2 with A30T, N32Y, E50I, N57D, G104Y, I105A
VL: B1 VL
B3: MH1_C/F6.12_D bispecific (pI-engineered) (bispecific antibody, V domains shown)
VH 1: B1 VH 1 with K13E, K63N
VH 2: B1 VH 2 with E1Q, S85R
VL: B1 VL
notes: Knob-in-hole IgG1null bispecific with human Ckappa
B4: 1.27/MH1 common light chain bispecific (anti-CD203c 1.27 x anti-c-Kit MH1) (bispecific antibody, V domains shown)
VH 1: B1 VH 1
VH 2: B1 VH 2 with A30T, N32Y, E50I, N57D, G104Y, I105A
VL: B1 VL
notes: as for B3
B5: FJ2156_MH1_C x F6_12B huIgG1 KIH (bispecific antibody, V domains shown)
VH 1: B1 VH 1 with K13E, K63N
VH 2: B1 VH 2 with E1Q, E46Q
VL: B1 VL
notes: also called MH1_C/F6.12_B

Assays:
c-Kit on KU812 cells [1] = target: T4, c-Kit on KU812 cells (UniProt P10721 26-976, limits assumed); experiment: flow cytometry on KU812 cells, which carry both c-Kit and CD203c (median fluorescence intensity); signal not separated by target
T4 construct: whole, on cells; also called c-Kit receptor; CD117
Experimental: (§1) All treatments were performed on cells seeded in T75 flasks at a seeding density of 0.3e6/ml. Cells were cultured in the presence of 80 ng/ml of SCF and treated with 20 ng/ml of IL3 24 hours prior to antibody staining. Following SCF/IL3 treatment, cells were harvested and stained with live dead stain (Zombie UV Biolegend 423108). Cells were then stained with a titration of anti-CD203c antibodies/bispecifics or respective isotype controls in a 5-fold dilution series starting at 50 μg/mL and detected with Anti human-Fc AF647 antibody (JIR 109-605-098). Samples were subsequently run on a Yeti analyzer, gating on 10K live cells. Subsequent analysis was performed using FlowJo software and data represented as MFI (median fluorescent intensity).

human c-Kit (SPR) = human c-Kit (SPR) (human, UniProt P10721 26-520, limits assumed); experiment: SPR, single-cycle kinetics, Human C-kit
cyno c-Kit (SPR) = cyno c-Kit (SPR) (cyno, UniProt F6V858 26-520 (rhesus entry)); experiment: SPR, single-cycle kinetics, Cynomolgus C-kit
[2] = target: T1, biotinylated human CD203c …; experiment: SPR (Biacore), biotinylated CD203c captured on the chip, Fab as analyte 1000 - 7.81 nM; response-versus-concentration fits in FIG. 11A-11C
Experimental: (§2) Biotinylated versions of the CD203c proteins were captured on a BiotinCap chip, and the antibodies injected in-solution in 2-fold serial dilutions. An SPR affinity determination assay was carried out on a BIAcore T20 using the conditions described below: [0212] […] Ligand Capture—biotinylated antigen: bio-huCD203c (Acro, Cat. nr. H52H4) and bio-cyCD203c (Icosagen) at 20 nM and 10 nM, respectively, in 1×HBS-EP+pH 7.4, on flow cell 2 over 1 min at 10 μl/min [0215] […] Complete blank assay runs without analyte antibody were included as blank reference. [0216] […] Regeneration: Baseline levels were restored using the regeneration solutions provided in the Biotin CAPture kit [0218] SPR running buffer: 1×HBS-EP+pH 7.4 (Cytiva; cat. nr. BR100669) [0219] Analysis: Data was analyzed using the Biacore Insight Evaluation Software by the steady state affinity model or the 1:1 binding model. Sensorgrams were referenced to flow cell 1 and the 0 nM concentration cycle.

[3] = target: T2, biotinylated cynomolgus CD203c …; experiment: as above
Experimental: as §2

[4] = target: T3, human CD203c expressed on the surface …; experiment: flow cytometry on KU812 cells, which carry both c-Kit and CD203c (median fluorescence intensity); signal not separated by target; no unit follows the number, the axis is in nM and the dotted line stands at about 0.2
Experimental: as §1

c-Kit on KU812 cells [5] = target: T4, c-Kit on KU812 cells; experiment: as above
Experimental: as §1

[6] = target: T1, biotinylated human CD203c …; experiment: SPR, single-cycle protocol, Bio-huCD203c; table gives Rmax, Chi2 and KD only
[7] = target: T2, biotinylated cynomolgus CD203c …; experiment: SPR, single-cycle protocol, Bio-cyCD203c; table gives Rmax, Chi2 and KD only
[8] = target: T3, human CD203c expressed on the surface …; experiment: flow cytometry on KU812 cells, which carry both c-Kit and CD203c; signal not separated by target
Experimental: as §1
(§3) The purified proteins were assessed for co-operative binding to both targets, CD203c and c-Kit, on KU812 cells. […] This enhanced binding translates to potent inhibition of c-Kit receptor phosphorylation by the F6/MH1 bispecific molecule when compared to monovalent anti-c-kit, which is shown in FIG. 8.

c-Kit on KU812 cells [9] = target: T4, c-Kit on KU812 cells; experiment: as above
Experimental: as §1, §3

[10] = target: T3, human CD203c expressed on the surface …; experiment: flow cytometry on KU812 cells, which carry both c-Kit and CD203c (median fluorescence intensity); signal not separated by target
Experimental: as §1

human c-Kit (SPR), sequence (P10721 26-520 limits assumed): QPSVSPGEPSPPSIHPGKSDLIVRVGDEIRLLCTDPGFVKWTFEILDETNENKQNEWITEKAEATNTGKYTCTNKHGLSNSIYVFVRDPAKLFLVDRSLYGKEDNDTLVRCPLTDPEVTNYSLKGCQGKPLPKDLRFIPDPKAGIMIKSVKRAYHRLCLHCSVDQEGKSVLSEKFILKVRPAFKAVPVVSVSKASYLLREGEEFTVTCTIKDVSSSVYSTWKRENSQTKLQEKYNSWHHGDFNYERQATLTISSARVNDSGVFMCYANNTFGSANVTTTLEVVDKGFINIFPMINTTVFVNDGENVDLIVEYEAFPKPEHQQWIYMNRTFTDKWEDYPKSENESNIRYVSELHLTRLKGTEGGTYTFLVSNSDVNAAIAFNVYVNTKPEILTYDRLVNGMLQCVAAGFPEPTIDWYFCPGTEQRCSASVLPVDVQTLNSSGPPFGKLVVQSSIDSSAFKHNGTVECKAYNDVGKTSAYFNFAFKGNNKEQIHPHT
T4 sequence (P10721 26-976 limits assumed): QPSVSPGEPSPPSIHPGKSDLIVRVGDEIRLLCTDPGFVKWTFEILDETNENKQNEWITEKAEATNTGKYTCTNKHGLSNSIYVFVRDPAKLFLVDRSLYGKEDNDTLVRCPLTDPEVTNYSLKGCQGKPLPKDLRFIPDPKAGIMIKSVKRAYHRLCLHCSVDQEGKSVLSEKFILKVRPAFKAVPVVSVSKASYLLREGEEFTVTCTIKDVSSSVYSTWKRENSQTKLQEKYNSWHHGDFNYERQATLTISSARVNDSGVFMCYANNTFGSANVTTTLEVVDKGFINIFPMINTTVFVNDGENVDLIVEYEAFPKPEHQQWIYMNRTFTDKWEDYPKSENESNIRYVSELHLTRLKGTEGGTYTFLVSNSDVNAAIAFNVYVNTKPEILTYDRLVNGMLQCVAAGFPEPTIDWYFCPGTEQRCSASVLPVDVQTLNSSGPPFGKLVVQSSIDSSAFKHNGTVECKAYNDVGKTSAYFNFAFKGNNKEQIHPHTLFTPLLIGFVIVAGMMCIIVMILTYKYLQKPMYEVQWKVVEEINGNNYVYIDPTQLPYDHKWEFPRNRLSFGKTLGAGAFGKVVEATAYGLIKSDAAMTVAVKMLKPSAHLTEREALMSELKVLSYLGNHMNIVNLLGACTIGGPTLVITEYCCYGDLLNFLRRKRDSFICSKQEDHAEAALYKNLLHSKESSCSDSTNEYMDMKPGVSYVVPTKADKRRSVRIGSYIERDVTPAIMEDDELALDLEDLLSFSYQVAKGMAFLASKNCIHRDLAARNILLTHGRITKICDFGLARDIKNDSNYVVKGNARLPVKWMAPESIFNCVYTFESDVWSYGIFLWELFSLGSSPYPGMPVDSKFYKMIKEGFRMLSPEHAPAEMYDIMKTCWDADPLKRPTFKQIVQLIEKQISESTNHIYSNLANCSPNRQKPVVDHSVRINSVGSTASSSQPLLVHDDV
cyno c-Kit (SPR), sequence (chain, as listed by the source): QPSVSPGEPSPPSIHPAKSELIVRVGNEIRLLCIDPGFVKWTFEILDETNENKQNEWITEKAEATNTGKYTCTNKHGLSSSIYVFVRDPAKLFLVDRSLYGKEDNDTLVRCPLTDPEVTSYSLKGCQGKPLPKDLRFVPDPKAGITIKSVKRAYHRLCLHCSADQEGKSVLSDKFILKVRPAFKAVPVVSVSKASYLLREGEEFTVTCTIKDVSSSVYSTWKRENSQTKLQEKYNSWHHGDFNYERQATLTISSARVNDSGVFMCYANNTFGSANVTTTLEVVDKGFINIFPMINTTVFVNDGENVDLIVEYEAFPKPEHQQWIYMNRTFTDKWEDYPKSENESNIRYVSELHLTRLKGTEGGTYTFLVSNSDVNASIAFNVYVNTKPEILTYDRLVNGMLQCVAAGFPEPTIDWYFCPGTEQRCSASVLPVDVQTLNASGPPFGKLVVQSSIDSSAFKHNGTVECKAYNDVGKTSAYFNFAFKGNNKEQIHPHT

Binder	EC50 (c-Kit on KU812 cells [1])	Kd (human c-Kit (SPR))	koff (human c-Kit (SPR))	kon (human c-Kit (SPR))	Kd (cyno c-Kit (SPR))	koff (cyno c-Kit (SPR))	kon (cyno c-Kit (SPR))	Kd [2]	Kd [3]	EC50 [4]	EC50 (c-Kit on KU812 cells [5])	Kd [6]	Kd [7]	binding result [8]	binding result (c-Kit on KU812 cells [9])	EC50 [10]
B1	0.548 nM	45.1 nM	0.00978 s⁻¹	217000 M⁻¹ s⁻¹	52.7 nM	0.0159 s⁻¹	301000 M⁻¹ s⁻¹	–	–	–	–	–	–	–	–	–
B2	–	–	–	–	–	–	–	705 nM	387 nM	–	–	–	–	–	–	–
B3	–	43 nM	0.00919 s⁻¹	214000 M⁻¹ s⁻¹	52.3 nM	0.0152 s⁻¹	291000 M⁻¹ s⁻¹	–	–	0.214 nM	0.214 nM	79.2 nM	63.1 nM	–	–	–
B4	–	–	–	–	–	–	–	–	–	–	–	–	–	binds	binds	–
B5	0.238 nM	44.5 nM	0.00949 s⁻¹	213000 M⁻¹ s⁻¹	52.4 nM	0.0155 s⁻¹	295000 M⁻¹ s⁻¹	–	–	–	–	108 nM	75.8 nM	–	–	0.238 nM
